# Reference: patent publication US20130315910A1 (Xencor, published 2013)
# Positions count from the first letter of the chain named.
# T1: human FcγRIIb on cells (transfected HEK293T cells; primary human B cells) (human, UniProt P31994 43-310)
# T1 construct: whole, on cells; also called CD32b
# T1 sequence (looked up): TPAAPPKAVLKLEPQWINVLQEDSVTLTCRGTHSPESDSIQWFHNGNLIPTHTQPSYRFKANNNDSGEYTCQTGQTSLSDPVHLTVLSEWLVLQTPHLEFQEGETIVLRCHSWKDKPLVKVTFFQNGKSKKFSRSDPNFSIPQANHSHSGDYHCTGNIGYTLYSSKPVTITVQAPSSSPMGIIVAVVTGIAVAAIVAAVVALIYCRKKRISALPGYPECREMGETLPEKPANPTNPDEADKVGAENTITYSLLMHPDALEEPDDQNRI
# T2: human FcγRIIb receptor protein (R&D Systems) (human, UniProt P31994 46-217)
# T2 construct: Bought protein injected over captured antibody in Biacore; also called CD32b
# T2 sequence (looked up): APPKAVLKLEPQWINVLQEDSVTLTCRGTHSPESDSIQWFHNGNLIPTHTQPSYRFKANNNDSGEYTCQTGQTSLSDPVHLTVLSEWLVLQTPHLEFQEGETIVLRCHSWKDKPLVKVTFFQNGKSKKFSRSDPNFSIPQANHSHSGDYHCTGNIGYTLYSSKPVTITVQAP
# T3: human FcγRIIa (131H), His- and GST-tagged (human, UniProt P12318 34-217)
# T3 construct: also called H131 FcγRIIa; HIIa; not shown: 6xHis and GST tags of the pTT5 vector
# T3 sequence (looked up): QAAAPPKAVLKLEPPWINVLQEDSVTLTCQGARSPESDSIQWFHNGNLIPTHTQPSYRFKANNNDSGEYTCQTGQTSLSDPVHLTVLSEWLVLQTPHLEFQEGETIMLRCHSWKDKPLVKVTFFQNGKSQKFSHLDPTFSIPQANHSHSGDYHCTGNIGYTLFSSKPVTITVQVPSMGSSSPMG
# T4: human FcγRIIa (131R), His- and GST-tagged (human, UniProt P12318 34-217)
# T4 construct: Expressed in HEK293T cells, purified by nickel chromatography; also called R131 FcγRIIa; not shown: 6xHis and GST tags of the pTT5 vector
# T4 sequence (looked up): T3 sequence (looked up) with H134R
# B1: anti-CD19 antibody HuAM4G7 IgG1 S267E (antibody)
# heavy: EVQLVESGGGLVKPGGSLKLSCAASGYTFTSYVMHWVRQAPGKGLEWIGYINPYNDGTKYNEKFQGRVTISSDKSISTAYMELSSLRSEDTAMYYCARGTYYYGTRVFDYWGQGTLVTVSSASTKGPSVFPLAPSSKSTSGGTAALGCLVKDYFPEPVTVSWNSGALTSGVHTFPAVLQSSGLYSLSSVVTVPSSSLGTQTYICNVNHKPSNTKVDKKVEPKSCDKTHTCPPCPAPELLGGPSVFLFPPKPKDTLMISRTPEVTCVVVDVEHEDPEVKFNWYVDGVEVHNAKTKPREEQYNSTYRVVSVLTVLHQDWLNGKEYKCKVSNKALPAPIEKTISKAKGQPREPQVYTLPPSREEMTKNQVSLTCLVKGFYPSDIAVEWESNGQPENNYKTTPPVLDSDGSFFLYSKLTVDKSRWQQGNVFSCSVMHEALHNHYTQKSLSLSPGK
# light: DIVMTQSPATLSLSPGERATLSCRSSKSLQNVNGNTYLYWFQQKPGQSPQLLIYRMSNLNSGVPDRFSGSGSGTEFTLTISSLEPEDFAVYYCMQHLEYPITFGAGTKLEIKRTVAAPSVFIFPPSDEQLKSGTASVVCLLNNFYPREAKVQWKVDNALQSGNSQESVTEQDSKDSTYSLSSTLTLSKADYEKHKVYACEVTHQGLSSPVTKSFNRGEC
# notes: Positions in EU numbering; copies: 2 + 2
# Assays:
# [1] = molecular target: T1, human FcγRIIb on cells (transfected …); assay: flow cytometry on FcγRIIb-transfected 293T cells [bottom right panel]
# Method: (§1) In order to validate the Biacore data and evaluate receptor binding of the variants on the cell surface, binding of select antibodies to cells expressing FcγRIIb was measured. […] HEK293T cells in DMEM with 10% FBS were transfected with human FcγRIIb cDNA in pCMV6 expression vector (Origene Technologies, Rockville, Md.), cultured for 3 days, harvested, washed twice in PBS, resuspended in PBS with 0.1% BSA (PBS/BSA), and aliquoted at 2×10^5 cells per well into 96-well microtiter plates. Fc variant antibodies were serially diluted in PBS/BSA then added to the cells and incubated with mixing for 1 h at room temperature. After extensive washing with PBS/BSA, phycoerythrin (PE)-labeled anti-human-Fab-specific goat F(ab′)2 fragment was added for detection. Cells were incubated for 30 min at room temperature, washed, and resuspended in PBS/BSA. Binding was evaluated using a FACSCanto II flow cytometer (BD Biosciences, San Jose, Calif.), and the mean fluorescence intensity (MFI) was plotted as a function of antibody concentration using Graph Pad Prism software (GraphPad Software, San Diego, Calif.) from which half-maximal binding (EC50) values were determined by sigmoidal dose response modeling.
# [2] = molecular target: T1, human FcγRIIb on cells (transfected …); assay: flow cytometry on FcγRIIb-transfected 293T cells [middle right panel]
# Method: as §1
# [3] = molecular target: T2, human FcγRIIb receptor protein (R&D …); assay: Biacore SPR, Kd(native IgG1)/Kd(variant)
# [4] = molecular target: T1, human FcγRIIb on cells (transfected …); assay: flow cytometry on FcγRIIb-transfected 293T cells [top left panel]
# Method: as §1
# [5] = molecular target: T3, human FcγRIIa (131H), His- and …; assay: SPR
# [6] = molecular target: T5, human FcγRI receptor protein (R&D Systems) (human, UniProt P12314 16-288); assay: SPR
# T5 construct: also called soluble FcγRI; solFcγRI
# [7] = molecular target: T6, human FcγRIIIa (158V), His- and GST-tagged (human, UniProt P08637 17-208); assay: SPR
# T6 construct: also called V158 FcγRIIIa; VIIIa; not shown: 6xHis and GST tags of the pTT5 vector
# [8] = molecular target: T4, human FcγRIIa (131R), His- and …; assay: SPR
# [9] = molecular target: T1, human FcγRIIb on cells (transfected …); assay: flow cytometry on FcγRIIb-transfected 293T cells [middle left panel]
# Method: as §1
# [10] = molecular target: T2, human FcγRIIb receptor protein (R&D …); assay: Biacore SPR, antibody captured on protein A/G chip, FcγR injected
# T6 sequence (P08637 17-208 F176V): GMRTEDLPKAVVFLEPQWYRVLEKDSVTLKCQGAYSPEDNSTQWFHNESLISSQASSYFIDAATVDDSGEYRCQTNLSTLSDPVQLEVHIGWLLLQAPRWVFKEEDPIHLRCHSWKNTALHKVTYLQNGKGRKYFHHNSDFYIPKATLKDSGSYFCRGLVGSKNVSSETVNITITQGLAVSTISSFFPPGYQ
# T5 sequence (P12314 16-288 limits assumed): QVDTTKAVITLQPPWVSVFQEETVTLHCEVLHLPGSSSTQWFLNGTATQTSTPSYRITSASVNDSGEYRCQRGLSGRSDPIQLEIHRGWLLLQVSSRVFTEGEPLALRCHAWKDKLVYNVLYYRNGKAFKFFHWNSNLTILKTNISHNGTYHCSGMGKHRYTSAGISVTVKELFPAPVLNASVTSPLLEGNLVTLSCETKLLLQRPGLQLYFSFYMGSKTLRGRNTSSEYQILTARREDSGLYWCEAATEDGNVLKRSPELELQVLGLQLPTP
binder,measurement,setting,value
B1,EC50 (read off the curve),[1],~0.02 µg/mL
same,EC50 (read off the curve),[2],~0.03 µg/mL
same,fold affinity relative to native IgG1,[3],20.4 fold
same,EC50 (read off the curve),[4],~0.01 µg/mL
same,Fold vs WT IgG1,[5],0.753 fold
same,Kd,[5],859 nM
same,Fold vs WT IgG1,[6],2.81 fold
same,Kd,[6],0.117 nM
same,Fold vs WT IgG1,[7],0.381 fold
same,Kd,[7],503 nM
same,Fold vs WT IgG1,[8],29.5 fold
same,Kd,[8],29.1 nM
same,EC50 (read off the curve),[9],~0.03 µg/mL
same,Kd,[10],71.9 nM
